The values that follow come from the supplement of paper PMC9170038.

In the data set the test system is MS2 coat protein. The experiment in a line: apparent KD of MS2 coat protein; designed switch direction (-1 OFF switch, 1 ON switch): -1; higher = weaker reporter binding. The essentials: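 Stalled E. coli RNA polymerase transcribed designed RNA switches on Illumina chips, which were then titrated with SNAP-549-labelled MS2 coat protein, doubling from 0.7 or 1.5 nM to 3 µM. Steps lasted from 0.8–1.5 h at the lowest concentration to 10–20 min at the highest. The apparent KD is each design's median over clusters of curve-fitted normalised fluorescence.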

[1] abbreviates: Eterna round: R95, input ligand: FMN 200 uM.
The mark [2] stands for this setting: Eterna round: R95, input ligand: microRNA oligo, concentration not stated.
[3] abbreviates: Eterna round: R95, input ligand: none.
The mark [4] stands for this setting: input ligand: microRNA oligo, concentration not stated.

Turning to “UGAGCAACAGGAUAUAUAUGGCGACCGUGAGGUCGAAGGUUACAUGAGGAUCACCCAUGUAGAAGGGUUGUUCU [Mat - Exclusion 2 - JL Mod - D16] (Eterna round: R97, puzzle: Exclusion 2)”, the “apparent KD of MS2 coat protein” value stood at 279 nM (input ligand: FMN 200 uM) and 102 nM (input ligand: none).

In the case of “UGAGCUUGAGGAUAUACAAGGCGACCGUGAGGUCGAGGUUUACAUGAGGAUCACCCAUGUAGAAGGCAAGUUCU [Mat - Exclusion 2 - JL Mod - D8] (Eterna round: R97, puzzle: Exclusion 2)”, the “apparent KD of MS2 coat protein” value amounted to 41.9 nM (input ligand: FMN 200 uM) and 18.5 nM (input ligand: none).

As for “UGAGUGUGAGGAUAUGGUAAAGAUAAGAUGAUGAAAGAACUCCAGAAGGCACAUGAGGAUCACCCAUGUAGAUG [JL-ex4-2.12 Jieux mod] (puzzle: Exclusion 4)”, the “apparent KD of MS2 coat protein” value runs as follows: under setting [1], 81.1 nM; under setting [2], 35.4 nM; under setting [3], 35.7 nM.

With “UGAUAGAGCCUAGGAUAUUCGGAUCUACUACAAGGAGAAGGAGGUAGUCGGUGACGAACAUGAGGAUCACCCAUGUCGUCCUUC [Eternabot solution 37] (Eterna round: R96, puzzle: Exclusion NG 1)”, under setting [4], the “apparent KD of MS2 coat protein” value came out at 61.7 nM.

With “UGAUCACAUGAGGAUCACCCAUGUCAGGAUAUCUACAUUGAAGCCUCGGCUUCAAUGUAGAGAAGGGACAUAAU [E1/3-B2] (Eterna round: R97, puzzle: Exclusion 1)”, the “apparent KD of MS2 coat protein” value is 33.2 nM (input ligand: FMN 200 uM) and 71.1 nM (input ligand: none).

With “UGAUCACAUGAGGAUCACCCAUGUCAGGAUAUCUACAUUGAAGCUGCGGCUUCAAUGUAGAGAAGGGACAUAAU [E1/3-B3] (Eterna round: R97, puzzle: Exclusion 1)”, the “apparent KD of MS2 coat protein” value stood at 117 nM (input ligand: FMN 200 uM) and 355 nM (input ligand: none).

On to “UGAUCACAUGAGGAUCACCCAUGUCAGGAUAUCUACAUUGAAGCUUCGGCUUCAAUGUAGAGAAGGGACAUAAU [E1/3-B1] (Eterna round: R97, puzzle: Exclusion 1)”, for which the “apparent KD of MS2 coat protein” value (input ligand: FMN 200 uM) was 115 nM and the “apparent KD of MS2 coat protein” value (input ligand: none) worked out at 175 nM.

Regarding “UGAUCACAUGAGGAUCACCCAUGUCAGGAUAUCUACAUUGAAGCUUCGGCUUCAAUGUAGAGAAGGGAUAUAAU [E1/5-B1] (Eterna round: R97, puzzle: Exclusion 1)”, the “apparent KD of MS2 coat protein” value came out at 203 nM (input ligand: FMN 200 uM) and 82.8 nM (input ligand: none).

On to “UGAUCAGACCGAGGAUAUAUAUGGAGGACGCACGUGAGUGCGUCCACUACAUGAGGAUCACCCAUGUAGAAGGCGGUCUGAUCU [JL ENG2 1.98] (Eterna round: R96, puzzle: Exclusion NG 2)”, for which the “apparent KD of MS2 coat protein” value is 26.2 nM (input ligand: FMN 200 uM), 9.6 nM under setting [4] and 13.1 nM (input ligand: none).

Consider “UGAUCUAGCGGAGGAUAUACAUGAGGAUCACCCAUGUAAAUCGCUGAACCGUAGUUCAGCAUCAUGUAGAAGGCCGCUAGAUCU [MOD2 ENG2 3.62 by JL] (Eterna round: R96, puzzle: Exclusion NG 2)”, for which the “apparent KD of MS2 coat protein” value by setting is: (input ligand: FMN 200 uM) 473 nM; under setting [4], 55.6 nM; (input ligand: none) 70.4 nM.

As for “UGAUCUAGCGGAGGAUAUACAUGAGGAUCACCCAUGUAGAUAACAUGACCGUAGUCGUGUAACGUGUAGAAGGCCGCUAGAUCU [JL ENG2 3.68] (Eterna round: R96, puzzle: Exclusion NG 2)”, the “apparent KD of MS2 coat protein” value runs as follows: (input ligand: FMN 200 uM) 104 nM; under setting [4], 17 nM; (input ligand: none) 23 nM.

Take “UGAUCUAGCGGAGGAUAUACAUGAGGAUCACCCAUGUAGAUAACAUGACCGUAGUCGUGUAUUGUGUAGAAGGCCGCUAGAUCU [JL ENG2 3.66] (Eterna round: R96, puzzle: Exclusion NG 2)”: the “apparent KD of MS2 coat protein” value is 40.8 nM (input ligand: FMN 200 uM), 14.3 nM under setting [4] and 18.8 nM (input ligand: none).

Consider “UGAUCUAGGCGAGGAUAUACAUGAGGAUCACCCAUGUAAUGGUGACAUGCGUACAUGUCACCUAUGUAGAAGGCGCCUAGAUCU [JL ENG2 3.55] (Eterna round: R96, puzzle: Exclusion NG 2)”, for which the “apparent KD of MS2 coat protein” value came out at 19.6 nM (input ligand: FMN 200 uM), 9 nM under setting [4] and 13 nM (input ligand: none).

“UGCAGACGAGGAUAUGAUAAUUAAUACAUGAGGAUCACCCAUGUAAUACUGAUCCAUGGAUCAGAAGGCGUCUGCU [E5/4-A3] (Eterna round: R97, puzzle: Exclusion 5)”: the “apparent KD of MS2 coat protein” value (input ligand: FMN 200 uM) worked out at 20.2 nM and the “apparent KD of MS2 coat protein” value (input ligand: none) stood at 13.7 nM.

For the sequence “UGCCGGCAUGUAAGGAUAUCCAGGAGAUGUAGAUCGGAGAAGGUACAUGAGGAUCACCCAUGUAUUCCAAUAAA [BmEX4 C.19] (Eterna round: R97, puzzle: Brourd's mod of Exclusion 4)”, the “apparent KD of MS2 coat protein” value reads like this: (input ligand: FMN 200 uM) 18 nM; (input ligand: none) 18.5 nM.

As for “UGCCGUUUAGGAUAUACAUGAGGAUCACCCAUGUGACACACAUAUUUUACAAAACCAUGUAGAAGGAAACGGCA [E3-1.0] (Eterna round: R96, puzzle: Exclusion 3)”, the “apparent KD of MS2 coat protein” value reads like this: (input ligand: FMN 200 uM) 542 nM; under setting [4], 95.4 nM; (input ligand: none) 114 nM.

Consider “UGCGCUUAAGGAUAUACUUCGGUGCGCCGAGAGUACGGCUAACUUGAGGAUCACCCAAGUAGAAGGUAAGAAAC [Esleberibe] (Eterna round: R97, puzzle: Exclusion 2)”, for which the “apparent KD of MS2 coat protein” value runs as follows: (input ligand: FMN 200 uM) 42 nM; (input ligand: none) 1270 nM.

Turning to “UGCGGUGAGGUAAGGAUAUUUGGGCAAUUACGCCCGGAGAAGGUACAUGAGGAUCACCCAUGUGCAGUAAGGCU [Eternabot (L2) Solution 18] (Eterna round: R97, puzzle: Brourd's mod of Exclusion 4)”, the “apparent KD of MS2 coat protein” value amounted to 122 nM (input ligand: FMN 200 uM) and 26.9 nM (input ligand: none).

As to “UGCUACAUGAGGAUCACCCAUGUAAUGUGGGAUUCGUUAGGACAGGAUAUGAUUGUAUUGUUUUUUCAGAAGGGUCAUUACUUU [JR_ExcNG3_Sub011] (Eterna round: R96, puzzle: Exclusion NG 3)”, the “apparent KD of MS2 coat protein” value runs as follows: (input ligand: FMN 200 uM) 74.4 nM; under setting [4], 34.6 nM; (input ligand: none) 52.9 nM.

In the case of “UGCUGACAAGGAUAUACAUGAGGAUCACCCAUGUUGGUUCAGCGACGAUAGUCGCAAUGUAGAAGGUGUCAGCA [E3/9-C1] (Eterna round: R97, puzzle: Exclusion 3)”, the “apparent KD of MS2 coat protein” value runs as follows: (input ligand: FMN 200 uM) 135 nM; (input ligand: none) 236 nM.

As to “UGCUGACGAGGAUAUACAUGAGGAUCACCCAUGUUGGUUCAGCGACGAUAGUCGCAAUGUAGAAGGCGUCAGCU [E3/9-A3] (Eterna round: R97, puzzle: Exclusion 3)”, the “apparent KD of MS2 coat protein” value (input ligand: FMN 200 uM) is 202 nM and the “apparent KD of MS2 coat protein” value (input ligand: none) stood at 765 nM.

Consider “UGGAUAACAGGAUAUACAUGAGGAUCACCCAUGUUUCCGGACGGAGACGAAUCCUAGAGUAGAAGGGUUAUCCC [Eternabot (Original) Solution 17] (Eterna round: R97, puzzle: Exclusion 3)”, for which the “apparent KD of MS2 coat protein” value is, setting by setting: (input ligand: FMN 200 uM) 388 nM; (input ligand: none) 362 nM.

Consider “UGGGUCACAGGAUAUACAUGAGGAUCACCCAUGUCGUAUUUCGUGGCGGAGAGCUCGAGUAGAAGGGUGCAUCC [Malarala] (Eterna round: R96, puzzle: Exclusion 3)”, for which the “apparent KD of MS2 coat protein” value runs as follows: (input ligand: FMN 200 uM) 297 nM; under setting [4], 58.9 nM; (input ligand: none) 148 nM.

Consider “UGGGUCACAGGAUAUACAUGAGGAUCACCCAUGUCGUAUUUCGUGGCGGAGAGCUCGAGUAGAAGGGUGCAUCC [Malarala] (puzzle: Exclusion 3)”, for which the “apparent KD of MS2 coat protein” value under setting [2] worked out at 96.3 nM.

On to “UGGGUUCUCCAUAGAAGUAACAUGAGGAUCACCCAUGUAGGGCAAGUUUUUUGCUCGUCAUAGGUUGAGGGAUUGGA [JR_SV3TOV1_Sub017] (puzzle: Sensor v3, turn-off variant 1)”, for which the “apparent KD of MS2 coat protein” value is, setting by setting: under setting [1], 968 nM; under setting [2], 441 nM; under setting [3], 634 nM.

Turning to “UGGUAACAUGAGGAUCACCCAUGUCAGGAUAUCAGUAAGAAGAGAUUAGAGUAGAAUAUGAGAAGGGACUAUAG [Excluse me! 1 - Jieux - Exclusion 1] (puzzle: Exclusion 1)”, the “apparent KD of MS2 coat protein” value under setting [2] was determined as 35.8 nM.

For “UGGUAACAUGAGGAUCACCCAUGUCAGGAUAUCAGUAAGAAUAGAUUAGAGUAGAAGAUGAGAAGGGACUAUAU [Excluse me! 6 - Jieux - Exclusion 1] (puzzle: Exclusion 1)”, the “apparent KD of MS2 coat protein” value under setting [2] amounted to 33.8 nM.

“UGUAAGGCAGAGGAUAUGGUUACUAGACGAGUACCAGAAGGCUGCACAUGAGGAUCACCCAUGUGAAAUCCACU [Eternabot (L1) Solution 72] (Eterna round: R97, puzzle: Exclusion 6)”: the “apparent KD of MS2 coat protein” value stood at 80.7 nM (input ligand: FMN 200 uM) and 34.7 nM (input ligand: none).

As to “UGUAUACGAGGAUAUACAUGAGGAUCACCCAUGUGGACGUUGGAGAACGGCCCUCGUAGUAGAAGGCGUAUGAG [Eternabot (L2) Solution 53] (Eterna round: R97, puzzle: Exclusion 3)”, the “apparent KD of MS2 coat protein” value was 51.3 nM (input ligand: FMN 200 uM) and 15.4 nM (input ligand: none).

As to “UGUCAGAUGGUAGGAUAUCCAUAUUGAGUGACCCUUUCAUAACAUGAGGAUCACCCAUGUCGGUGGGAGAAGGGCCGUAUGGUG [salish99_ExNG02_R04_028] (Eterna round: R96, puzzle: Exclusion NG 2)”, the “apparent KD of MS2 coat protein” value came to 53.7 nM (input ligand: FMN 200 uM), 21.9 nM under setting [4] and 33.8 nM (input ligand: none).

For “UGUCAGAUGGUAGGAUAUCCCUAUCGCGUGUCCCUUUCCUAACAUGAGGAUCACCCAUGUCGGUGGGAGAAGGGCCGUAUGGUG [salish99_ExNG02_R04_036] (Eterna round: R96, puzzle: Exclusion NG 2)”, the “apparent KD of MS2 coat protein” value runs as follows: (input ligand: FMN 200 uM) 15.7 nM; under setting [4], 13.6 nM; (input ligand: none) 15.4 nM.
